Paper PMC3506622

Key:
[1] = molecular target: bcPadR1, PadR-like transcriptional regulator from Bacillus cereus ATCC 14579 (product of gene locus BC4206) (Bacillus cereus ATCC 14579); assay: SEC; analytical gel filtration, Superdex 200 PC 3.2/30; 20 mM Tris-HCl pH 8.0, 200 mM NaCl, 1 mM EDTA, 1 mM dithiothreitol; apparent molecular weight against five marker proteins
[2] = molecular target: bcPadR2, PadR-like transcriptional regulator from Bacillus cereus ATCC 10987 (product of gene locus BCE3449) (Bacillus cereus ATCC 10987); assay: as above

Substance | stoichiometry N [1] | stoichiometry N [2]
bcPadR1, PadR-like transcriptional regulator from Bacillus cereus ATCC 14579 (product of gene locus BC4206) (natural protein) | 2 | –
bcPadR2, PadR-like transcriptional regulator from Bacillus cereus ATCC 10987 (product of gene locus BCE3449) (natural protein) | – | 2
